Substitutions are numbered along the chain they refer to.
B1: KCD014 (antibody, V domains shown)
VH: EVKLVESGGGLVQPGGSLKLSCAASGFTFSSYIMSWVRQTPEKRLEWVAYITNGGGNTYYPDTIKGRFTISRDNAKNTLYLQMSSLKSEDTAMYYCARHGTGYAMDYWGQGTSVTVSS
VL: EIVLTQSPTTMAASPGEKITITCSASSSISSNYLHWYQQKPGFSPKLLIYRTSNLASGVPARFSGSGSGTSYSLTIGTMEAEDVATYYCQQGSSIPLTFGAGTKLELK
B2: KCD019 (antibody, V domains shown)
VH: QVQLQQSGAELARPGASVKMSCKASGYTFATYTIHWVKQRPGQGLEWIGYLNLRNDYTHYNQKFRDKAALTADKSSSTAYMQLSSLTSEDSAVYNCAFRLGNDRQGWYFDVWGAGTTVTVSS
VL: DIVMTQAHRFMSTSVGDRVIISCKASQDVGTAVAWYQQTPGQSPKILIYWTSTRHTGVPDRFTGSRSGTDFTLTISNVQSEDLADYFCQQYTTYPLTFGGGTKLEIK
B3: KCD077 (antibody, V domains shown)
VH: EVQLQQSGAELVRPGALVKLSCKASGFNIKDYYMHWVKQRPEQGLEWIGWIDPENGHTIYDPRFQGKATITADTSSNTAYLQLSSLTSEDTAVYYCSRGLLGFAYWGQGTLVTVSA
VL: DIVMTQSQKFMSTSVGDRVSVTCKASQNVGTNVAWYQQKPGQSPKALIYTASYRYSGVPDRFTGSGSGTDFTLTISNVQSEDLAEYFCQQYNSYPHMYTFGGGTKLEIK
B4: KCD133 (antibody, V domains shown)
VH: EVQLVESGGGLLQPKGSLKLSCAASGFTFNTYAMNWVRQAPGKGLEWVARIRSKSSNYATYYADSVKDRFTISRDDSQSMFYLEMNNLKTEDTAMYYCVRDRGYYYVMDYWGQGTSVTVSS
VL: DIVLTQSPASLAVSLGQRATISCRASESVEYYGTSLMQWYQQKPGQPPKLLINAASNVESGVPARFSGSGSGTDFSLNIHPVEEDDIAMYFCQQSRKVPWTFGGGTKLEIK
B5: KCD004 (antibody, V domains shown)
VH: EVQLQQSGAELVRPGSSVKMSCKTSGKTFTSHGINWVKQRPGQGLEWIGYIYIGNGYNEYNEKFKGKATLTSDTSSSTAYMQLSSLTFEDSAIYFCVRKAYGNYGFDDWGQGTTLTVSS
VL: DIQMTQSPTSLSASLGESVSLTCRASQEISGYLNWLQQKPDGSIKRLIYAASTLDSGVPKRFSGSRSGSDYSLTISSLESEDFADYYCLQYANYPFTFGSGTKLEVK
notes: also called OG2063
B6: KCD125 (antibody, V domains shown)
VH: B5 VH with K27N, H32Y, N55T, N58T, F88S, D108Y
VL: B5 VL with T9S, S18R, N34S, S43T, N93S, V106I
B7: KCD126 (antibody, V domains shown)
VH: B5 VH
VL: B5 VL with Y32N
B8: KCD205 (antibody, V domains shown)
VH: B5 VH with K27N, F88S
VL: B5 VL with T9S, S18R, N34S, S43T, R66S, E81D, N93S, V106I
B9: KCD011 (antibody, V domains shown)
VH: EVKLVESGGGLVQPGGSLKLSCAASGFTFSSNTMSWVRQTPEKRLEWVAYITNGGGSTYYPDTVKGRFTISRDNARNTLYLQMSSLKSEDTAMYYCARHDYYTMDYWGQGTSVTVSS
VL: DIQMTQSPSSLSASLGGKVTITCKASQDINKYIAWYQHKPGKGPRLLIHYTSTLQPGIPSRFSGSGSGRDYSFSISNLEPEDIATYYCLQYDNLLYTFGGGTKLEIK
B10: KCD058 (antibody, V domains shown)
VH: EVKLVESGGDLVQPGGSLKLSCAASGFTFSRYIMSWVRLTPEKRLEWVAFITNGGGNTYHPDTVKGRFTISRDNANNTLYLQMSSLKSEDTAIYYCARHDYYALDYWGQGTSVTVSS
VL: B9 VL
B11: KCD063 (antibody, V domains shown)
VH: B1 VH with T28I, N57S, I64V, F68L, A97V, G100A, T101H, G102Y
VL: B9 VL with A34T
B12: KCD056 (antibody, V domains shown)
VH: B9 VH with L20V, S31T, N32Y, V64E, R76K, A97V, T103A
VL: B9 VL with K103T
B13: KCD057 (antibody, V domains shown)
VH: B10 VH with D10G, R31N, L39Q, F50Y, N57A, H60Y, R67Q, N76K, Y101F, Y106F
VL: B9 VL with Q90K
B14: KCD030 (antibody, V domains shown)
VH: QVQLQQSGAELAKPGASVKMSCKASGYTFTNYWMHWVKQRPGQGLEWIGYINPSIGYTEYNQKFKDKATLTADKSSSTAYMQLSSLTSEDSAVFYCATFIYYAMDYWGQGTSVTVSS
VL: DIQMNQSPSSLSASLGDTITITCHASQNINVWLSWYQQKPGNIPKLLIYKASNLHTGVPSRFSGSGSGTGFTLTISSLQPEDIATYYCQQGQSYPYTFGGGTKLEIK
B15: KCD066 (antibody, V domains shown)
VH: QVQLQQSAAELARPGASVKMSCKASGYTFTDYTMHWVKQRPGQGLEWIGYINPSGGYTDYNQKFKDKTALTADKSSSTAYMQLSSLTSEDSAVYYCARRRDYWFAYWGQGTLVTVSA
VL: DIVMSQSPSSLAVSVGEKVTMSCKSSQSLLYSGNQKNYLAWYQQKPGQSPKLLIYWASTRESGVPDRFTGSGSGTDFTLTISSVKAEDLAVYYCHQYYSYLTFGAGTKLELK
B16: KCD114 (antibody, V domains shown)
VH: EVQLQQSGPELVKPGASVKISCKASGYSFTAYYMNWVKQSPEKSLEWIGDINPSTGGTTYNQNFKAKATLTVDKSSSTAYMHLKSLTSEDSAVYYCATTYYSGNSYVGFAYWGQGTLVTVSA
VL: DIVMTQSHKFMSTSVGDRVSITCKASQDVSTAVAWYQQKPGQSPKLLIFWASTRHTGVPDRFTGSGSGTDYTLTISSVQAEDLALYYCQQHYSTPWTFGGGTKLEIK
B17: KCD212 (antibody, V domains shown)
VH: EVHLVESGGDLVKPGGSLKLSCAASGFTFSRYGMSWVRQTPDKRLEWVATISSAGSYTYYPDSVKGRFTISRDNAKNTLFLQMSSLKSEDTAMYYCARPLNYYGTSSFDYWGQGTTLTVSS
VL: QIVLTQSPAIMSASPGEKVTMTCRASSSVSSTYLHWYQQKPGSSPKLWIYSTSNLASGVPPRFSGSGSGTSYSLTISSVEAEDAATYYCQQYDSSPNTFGAGTKLELK
B18: KCD131 (antibody, V domains shown)
VH: QVQLQQSGPELVKPGASVKISCKASAYTFTDYYINWVKQRPGQGPEWIGWIFPGSNSTYSNEKFEVKATLTVDESSSTAYMLLSSLTSEDSAVYFCARLGYFGSSYHALDYWGQGTSVTVSS
VL: DIQMTQSPASLSVSVGETVTITCRASENIYSHLAWFQQKQGKSPRLLVYSATNLPDGVPSRFSGSGSGTQYSLKINILQSEDFGSYYCQHFWGTPWTFGGGTKLEIK
B19: KCD219 (antibody, V domains shown)
VH: QVQLQQSGPELVKPGASVKISCKASGYTFTDYYINWVKQRPGQGLEWIGWIFPGSGSTYYNEKFKGKATLTVDKSSSTAYMLLSSLPSEDSAVYFCARYGYYGSSFYAMDYWGQGTSVTVSS
VL: B18 VL with H32N, F36Y, R45Q, S50A, P55A, I77S, T94S, W96P
B20: KCD225 (antibody, V domains shown)
VH: B19 VH with V37M, G56D, P87T, Y99L, G103S, S104H, F106Y
VL: DIQMTQSPASLSVSTGETVTITCRASENIYSNLAWFQQKQGKSPQLLVYAATNLADGVPSRFSGSGSGTQYSLKITSLQSEDFGSYYCQHFWGTPLTFGAGTKLDLK
B21: KCD136 (antibody, V domains shown)
VH: EVQLQQSVAELVRPGASVKLSCSASGFNIKNTYMHWVNQRPEQGLEWIGRIDPANGITKYAPNFQGKATITADTSSNTAYLQLSNLTSEDTAIYYCTRAMDYWGQGTSVTVSS
VL: QIVLTQSPAIMSASPGEKVTMTCSASSSVSYMYWYQQKPGSSPRLLIYDISNLASGVPVRFSGSGSGTSYSLTISRMEAEDAATYYCQQWDTYPWTFGGGTKLEIK
B22: KCD110 (antibody, V domains shown)
VH: EVQLQQSGPELVKPGASVKISCKASGYSFTGYYMHWVKQSHGNILDWIGYIDPDNGVSSKNQKFTGKATVTADKSSSTAYMELRSLTSEDSAVYYCAGYYGSSWYWYFDVWGTGTTVTVSS
VL: QIVLSQSPAILSASPGEKVTMTCRASSSVSYMHWYQQKPGSSPKPWIYATSNLASGVPARFSGSGSGTSYSLTISRVEAEDAATYYCQQWSSNPYTFGGGTKLEIK

target: T1, human complement factor D purified from serum (human, UniProt P00746 26-253); assay: SPR MX96
T1 construct: serum-purified (CompTech); also called hCFD-Comptech; CFD
T1 sequence (P00746 26-253): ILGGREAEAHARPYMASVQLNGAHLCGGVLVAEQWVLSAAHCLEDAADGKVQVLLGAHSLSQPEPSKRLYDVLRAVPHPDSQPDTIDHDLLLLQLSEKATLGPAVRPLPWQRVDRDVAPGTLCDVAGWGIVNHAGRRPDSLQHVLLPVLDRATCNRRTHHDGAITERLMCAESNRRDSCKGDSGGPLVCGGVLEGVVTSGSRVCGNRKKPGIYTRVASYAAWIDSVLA

Kd [nM] | Binder
22 | B1
7.2 | B2
17 | B3
12 | B4
0.35 | B5
3.8 | B6
0.34 | B7
3 | B8
77 | B9
9.9 | B10
33 | B11
60 | B12
2.7 | B13
4.2 | B14
2.9 | B15
8.1 | B16

target: T2, recombinant cynomolgus CFD, His-tagged (cynomolgus); assay: SPR MX96
T2 construct: also called rcyCFD-His; recombinant Cyno-CFD

Kd [nM] | Binder
47 | B2
14 | B3
84 | B4
0.92 | B5
4.1 | B6
0.93 | B7
3.3 | B8
38 | B9
11 | B10
24 | B11
31 | B12
3.1 | B13
4 | B15
8.4 | B16

target: T3, recombinant human CFD mutant 1 (R157A, R207A), His-tagged (human, UniProt P00746 26-253); assay: SPR MX96
T3 construct: positions are linear positions in the mature protein; also called rhCFD-mut1-His; Mut1
T3 sequence (P00746 26-253 R182A/R232A limits assumed): as the sequence (P00746 26-253) above, with R157A, R207A counted along it

Kd [nM] | Binder
180 | B2
13 | B3
0.14 | B5
2.7 | B6
0.18 | B7
1.8 | B8
110 | B9
7.6 | B10
84 | B12
2.5 | B13
1.3 | B14
1.2 | B15
8.4 | B16

target: T4, recombinant human CFD, His-tagged (human, UniProt P00746 26-253); assay: SPR MX96
T4 construct: also called rhCFD-His
T4 sequence (P00746 26-253 limits assumed): as the sequence (P00746 26-253) above

Kd [nM] | Binder
20 | B1
61 | B2
14 | B4
0.24 | B5
2.5 | B6
0.29 | B7
1.9 | B8
59 | B9
9.4 | B10
52 | B12
2.7 | B13
3.8 | B14
1.9 | B15
3.8 | B16

target: T5, human Complement Factor D (CFD), purified from human serum (human, UniProt P00746 26-253); assay: SPR MX96, mAbs amine-coupled, CFD injected
T5 construct: serum purified (CompTech A136); also called serum purified CFD; hCFD-Comptech
T5 sequence (P00746 26-253): as above

Kd [nM] | Binder
0.469 | B17
0.14 | B18
4.3 | B19
8.67 | B20
4.46 | B21
3.71 | B22

Source: patent US20180334496A1 (KODIAK SCIENCES, published 2018)
